Measurements: patent publication US20090118165A1 (CASE WESTERN RESERVE UNIVERSITY, published 2009)
Where no end group is shown, it is not given here. The star is where a group is joined. Biotin = O=C1N[C@H]2[C@H](CS[C@H]2CCCCC(=O)*)N1

Biological target: T1, Bax (endogenous, in lysate of human Dami megakaryocytic cells) (human, UniProt Q07812 1-192, limits assumed)
T1 construct: Endogenous protein in a cell lysate
Experiment: pull-down of biotin-labeled peptide with streptavidin beads from Dami cell lysate, Western blot with anti-Bax antibody
Protocol: FIG. 1 illustrates Western Blots of Dami cell lysates incubated in the absence or presence of 200 μM biotin-labeled peptides. The peptides were: KLPVM (SEQ ID NO:8) (scrambled negative control), VPMLK (SEQ ID NO:2) (human version), VPTLK (SEQ ID NO:5) (mouse version), and VPALR (SEQ ID NO:6) (rat version). Immuno-precipitation was performed with streptavidin beads. Western blot analysis of immune precipitated samples were performed with anti-Bax polyclonal antibody.
Co-precipitation was performed as previously described (Yoshida, T., et al., Bax-inhibiting peptide derived from mouse and rat Ku70. Biochem Biophys Res Commun, 2004. 321(4): p. 961-6). […] After the precleaning of 200 μl of sample with 20 μl of streptavidin beads (Amersham-Pharmacia Biotech) at 4° C. for 1 h, the samples were incubated with 200 μM of various biotin-labeled peptides (biotin-KLPVM (SEQ ID NO:8), VPMLK (SEQ ID NO:2), VPTLK (SEQ ID NO:5) or VPALR (SEQ ID NO:6) for 2 h. Streptavidin beads (20 μl) were added to the samples and the mixtures were incubated at 4° C. After 2 h of incubation, the beads were washed with 100 μl of Chaps buffer 3 times by centrifugation (1000 rpm, at 4° C., 15 sec). The beads were boiled in 40 μl of Laemmli buffer and the eluted proteins (20 μl) were analyzed by Western blotting with anti-human Bax polyclonal antibody (BD-Pharmingen). […]

T1 sequence (Q07812 whole entry): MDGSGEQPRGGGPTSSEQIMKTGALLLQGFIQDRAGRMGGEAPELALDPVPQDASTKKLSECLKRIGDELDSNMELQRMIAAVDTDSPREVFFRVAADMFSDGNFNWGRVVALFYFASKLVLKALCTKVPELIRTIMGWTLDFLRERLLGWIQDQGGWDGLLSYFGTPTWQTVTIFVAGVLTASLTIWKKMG

B1: biotin-KLPVM (SEQ ID NO:8), scrambled negative control peptide (peptide)
peptide: Biotin-KLPVM
notes: Synthetic scrambled control peptide, biotin-labeled, used at 200 uM in Dami cell lysate
binding result: no binding (tested: 200 µM)
